Data on 3 substances can be found in PMC7305985.

Assay [1] has as its target Histone H4K5ac peptide, biotinylated (1–23) (UniProt P62805). Description: pull-down.
Assay [2] concerns the target Mononucleosomes, Recombinant Human Biotinylated (human) (UniProt P04908). As to the kind of experiment: pull-down.
Assay [3] deals with FLAG-tagged KAP1 ΔRB. Description: co-IP.
Chain of FLAG-tagged KAP1 ΔRB (Q13263 2-835, stated change not applied): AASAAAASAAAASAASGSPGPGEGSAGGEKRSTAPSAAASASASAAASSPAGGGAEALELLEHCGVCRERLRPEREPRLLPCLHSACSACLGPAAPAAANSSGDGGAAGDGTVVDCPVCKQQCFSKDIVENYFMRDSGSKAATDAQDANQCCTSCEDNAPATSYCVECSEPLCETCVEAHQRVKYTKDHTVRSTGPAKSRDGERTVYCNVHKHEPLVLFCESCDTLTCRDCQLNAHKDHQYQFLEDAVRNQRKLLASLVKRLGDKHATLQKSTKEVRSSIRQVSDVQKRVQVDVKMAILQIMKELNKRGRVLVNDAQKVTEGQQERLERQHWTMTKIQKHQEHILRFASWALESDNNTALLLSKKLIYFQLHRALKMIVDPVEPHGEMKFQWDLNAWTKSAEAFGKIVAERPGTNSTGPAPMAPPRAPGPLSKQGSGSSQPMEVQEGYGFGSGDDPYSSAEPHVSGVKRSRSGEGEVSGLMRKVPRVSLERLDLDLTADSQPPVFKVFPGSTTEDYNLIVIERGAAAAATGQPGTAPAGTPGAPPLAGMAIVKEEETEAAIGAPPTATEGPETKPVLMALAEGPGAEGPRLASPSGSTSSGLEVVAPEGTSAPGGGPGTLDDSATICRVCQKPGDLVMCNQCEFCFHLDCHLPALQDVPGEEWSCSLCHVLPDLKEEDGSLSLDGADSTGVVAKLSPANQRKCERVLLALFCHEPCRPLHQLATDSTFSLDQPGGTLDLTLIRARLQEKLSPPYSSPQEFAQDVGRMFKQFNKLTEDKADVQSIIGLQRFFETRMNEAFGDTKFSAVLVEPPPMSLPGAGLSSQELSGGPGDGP

Chain of endogenous SMAD2 (Q15796 whole entry): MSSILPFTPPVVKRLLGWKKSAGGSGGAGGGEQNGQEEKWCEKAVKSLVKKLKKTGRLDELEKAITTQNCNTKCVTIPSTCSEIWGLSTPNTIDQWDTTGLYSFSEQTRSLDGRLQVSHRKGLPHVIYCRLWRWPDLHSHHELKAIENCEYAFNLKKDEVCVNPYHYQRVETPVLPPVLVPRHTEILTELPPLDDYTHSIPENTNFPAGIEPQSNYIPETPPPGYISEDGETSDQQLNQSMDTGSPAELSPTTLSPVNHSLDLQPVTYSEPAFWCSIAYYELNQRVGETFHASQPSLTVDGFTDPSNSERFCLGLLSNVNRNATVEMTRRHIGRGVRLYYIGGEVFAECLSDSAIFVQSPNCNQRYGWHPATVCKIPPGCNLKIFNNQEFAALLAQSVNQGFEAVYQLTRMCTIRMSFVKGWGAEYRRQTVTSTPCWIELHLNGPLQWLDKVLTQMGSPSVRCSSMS

In assay [1], “GST-tagged KAP1 PHD-BD (residues 614–835) (from UniProt Q13263 614-835) (domain or fragment)” registered a percent lower binding relative to unmodified H4 of 30%.

For the substance “GST-tagged KAP1 PHD-BD E662/663A (from UniProt Q13263 614-835) (domain or fragment)”, the percent reduction in binding relative to WT KAP1 in assay [2] amounted to 80%.

In assay [3], “endogenous SMAD2 (from UniProt Q15796 1-467) (natural protein)” came in with a percent decrease in binding relative to WT KAP1 of 80%.
